Laboratory results taken from the nanobody polyreactivity screen of Harvey et al. (2022).

Assay: yeast display, Sf9 membrane polyspecificity reagent, FACS + sequencing; frameworks hold sequencing errors
Summary of the method: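 Galactose induction of a Saccharomyces cerevisiae BJ5465 synthetic nanobody display library ran 36–48 hours. The cells were then stained for 1 hour at 4 °C with 10% biotinylated, detergent-solubilized Sf9 membrane reagent, pulled down on streptavidin microbeads and FACS-sorted into low and high (top ~1%) gates on expression and reagent-binding fluorescence. Labels for polyreactivity follow the gate of origin.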

Sequence	polyreactivity (PSR sort gate)
QVQLVESGGGLVQAGGSLRLSCAASGSIFDIYAMAWYRQAPGKERELVADITSGGRTDYADSVKGRFTISRDNGKNTVYLQMNSLKPEDTAVYYCAADYIWDSVYWYISSYDYWGQGTKVTVSS	low polyreactivity
QVQLVESGGGLVQAGGSLRLSCAASGSIFDLNTMGWYRQAPGKERELVAAITWGGGSTYYADSVKGRFTISRDNAKNTVYLQMNSLKPEDTAVYYCNVTWSWGEKGRKAYGYWGQGTQVTVSS	low polyreactivity
QVQLVESGGGLVQAGGSLRLSCAASGSIFDLYAKGWYRQAPGKERELVAGISYSGGSTYYADSVKGRFTISRDNAKNTVYLQMNSLKPEDTAVYYCATAYYYHGGYYYPYDDYWGQGTQVTVSS	low polyreactivity
QVQLVESGGGLVQAGGSLRLSCAASGSIFDLYVMGWYRQAPGKERELVAAISLIGGSTSYADSVKGRFTISRDNEKNTVYLHRKSLKPEDTAVYYCAVEKFFRAEYDHWGLGTQVTVSS	low polyreactivity
QVQLVESGGGLVQAGGSLRLSCAASGSIFDNYAMGWYRPAPGKERELVAAITSGGSTYYADSVKGRFTISRDNAKNTVYLQMNSLKPEDTAVYYCAKDYKSIDDYWGQGTQVTVSS	low polyreactivity
QVQLVESGGGLVQAGGSLRLSCAASGSIFDPYAMGWYIQAPGKERELDAAITASGSSTYYADSVKGRFTISRDNAKNTVYLQMNSLKPEDTAVYYCAADRANWEYLLSWLGYDYWGQGTQVTVSS	low polyreactivity
QVQLVESGGGLVQAGGSLRLSCAASGSIFDPYAMGWYRQAPGKERELVAAITSDGSTNYADSVKGRFTISRDNAKNTVYLQMNSLKPEDTAVYYCAKHQFGRYVVLYPRGHWFDYWGQGTQVTVSS	low polyreactivity
QVQLVESGGGLVQAGGSLRLSCAASGSIFDPYGMGWYRQAPGKERELVAAISSSDGSTYYADSVKGRFTISRDNAKNTVYLQMNSLKPEDTAVYFCAAETYGTNSSNTVYRWKYDYWGQGTQVTVSS	low polyreactivity
QVQLVESGGGLVQAGGSLRLSCAASGSIFDQYAMGWYRPAPGKERELVAAIDTSGGSTYYADSVKGRFTISRDNAKNTVYLQMNSLKPEDTAVYYCNAGGDGDILTTEMDYWGPGTQVTVSS	low polyreactivity
QVQLVESGGGLVQAGGSLRLSCAASGSIFDRNAMGWYRQAPGKERELVAAISRSSGNTYYADSVKGRFTISRDNAKNTVYLQMNSLKPEDTAVYYCNKVDYWGQGTQVTVSS	high polyreactivity
QVQLVESGGGLVQAGGSLRLSCAASGSIFDRYAMGWYIQAPGKERELVASITWRATSTYYADSVKGRFTISRDNAKNTVYLQMNSLKPEDTAVYYCAADVPWGWWDSDFSDNYYWGQGTQVTVSS	low polyreactivity
QVQLVESGGGLVQAGGSLRLSCAASGSIFDSNAMGWYRQAPGKERELVADIRGIGGSTYYADSVKGRFTISRDNAKNTVYLQMNSLKPEDTAVYYCNTSTLGGYYWGQGTQVTVSS	low polyreactivity
QVQLVESGGGLVQAGGSLRLSCAASGSIFDSNAMGWYRQAPRQERELVAAISSGGNTNYADSVKGRFTISRDNAKNTVYLQMNSLKPDDTAVYYCARDTQLPHFYGRVSEYDYWGQGTQVTVSA	low polyreactivity
QVQLVESGGGLVQAGGSLRLSCAASGSIFDSYAMGWSRQAPGKERELVAAITWSGGITFYADSVKGRFTISRDNAKNTVYLQMNSLKPEDTAVYYCATARSYVGVGGTFVGLYDYWGQCTQVTVSS	low polyreactivity
QVQLVESGGGLVQAGGSLRLSCAASGSIFDSYAMGWYRQAPGKDRELVAAISGNSDSTYYADSVKGRFTISRDNATNTVYSQMNSLKAEDTAVYNCNARGRLPYLEFYYWGQGTQVTVSS	low polyreactivity
QVQLVESGGGLVQAGGSLRLSCAASGSIFDSYTMAWYRQEPGKEREFVAAISRGGGSTYYADSVKGRFTISRDNAKNTVYLQMNSLKPEDTAVYYCAASSYLNSRFKFDYWGQGTQVTVSS	low polyreactivity
QVQLVESGGGLVQAGGSLRLSCAASGSIFDVNAMGCARQAPGNERELVAGISWSGGSTYYADSVKGRFTISRDNAKNTVYLQMNSLKPEDTAVYYCNAEGPIYFYFYRGMDYWGQGTQVTVSS	low polyreactivity
QVQLVESGGGLVQAGGSLRLSCAASGSIFDVNAMGWYRQAPGKERELVAAISDSGGSTYYADSVKGRFTISRDNAKNTVYLQMNSLKPEDSAVYYCNADWSWYNYYDFDYWGQGTQVTVSS	low polyreactivity
QVQLVESGGGLVQAGGSLRLSCAASGSIFDVNAMGWYRQAPGKERELVASIDNSGTTNYADSVKGRFTISRDNAKNTVYLHMNSLKPEDTAVYYCAKDASLEYSRWGGDYWGQGTQVTVSS	low polyreactivity
QVQLVESGGGLVQAGGSLRLSCAASGSIFDVNTMGSYRQAPGKETELGASITSSGSTYYADSVKGRFTISRDNAKNTVYLQMNSLKPEDTAVYYCAATPIGQHFTLDYWGQGTQVTVSS	low polyreactivity
QVQLVESGGGLVQAGGSLRLSCAASGSIFDVYAMGWYRLAPGKERELVAAINWTGGSTYYADSVKGRFTISRDNAKNTVYLQMNSLKPEDTAVYYCAASYYYGTEHYDYWGQGTQVTVSS	low polyreactivity
QVQLVESGGGLVQAGGSLRLSCAASGSIFDVYAMGWYRQAPGKERELVAAITWRGGSTYYADSVKGRFTISRDNAKNTVYLQMNSLKPEDTAVYYCAAVYQSRLWDRYYYWGQGTQVTVSS	high polyreactivity

Sequence	polyreactivity (PSR sort gate)
QVQLVESGGGLVQAGGSLRLSCAASGSIFDVYTMGWYRQAPGKDRELVAAINTGGGSTYYADSVKGRFTISRDNAKNTVYLQMNSLKPEDTAVYYCARSRYREWGQGTQVTVSS	low polyreactivity
QVQLVESGGGLVQAGGSLRLSCAASGSIFDVYTRGWYRQAPGKQRELVAAINTGGGSTYYADSEKGRFTISRDIAKNTVYLQMNSLKPEDTAVYYCAASVYHYGPLYYWGQVTQVTVSS	low polyreactivity
QVQLVESGGGLVQAGGSLRLSCAASGSIFDWYAMGWYRQAPGKEGELVAAISSGDSTYYADSVKGRFTISRDNAKNTVYLQMNSLKPEDTAVYYGAAVTKLSGIRYNYWGQGTQVTVSS	low polyreactivity
QVQLVESGGGLVQAGGSLRLSCAASGSIFDYNAMGWYIQAPGKEREFVAAITYSGGSTYYADSVKGRFTISRDNAKYTVYLQMYSLKPEDSAVYYCGADYFQHVPKYGYCGQGTQVTVSS	low polyreactivity
QVQLVESGGGLVQAGGSLRLSCAASGSIFDYYAMGWYRQAPGKERELVAAIDSGDITYYADSVKGRFTISRDNAMNTVYLQMNSLKPEETAVYYCAAEGTGYSVGWQYGYWGQGTQVTVSS	low polyreactivity
QVQLVESGGGLVQAGGSLRLSCAASGSIFDYYAMGWYRQAPGKERELVAAIRRIGGITYYADSVKGRFTISRDNAKNTVYLQMNSLKPEDTAVYYCNVLVKHSTTTYSTYDYWGQGTQVTVSS	high polyreactivity
QVQLVESGGGLVQAGGSLRLSCAASGSIFDYYAMGWYRQAPGKERELVAAISGTGGSTYYADSVKGRFTISRDNAKNTVYLQMNSLKPEDTAVYYCNAGRHILTALRNDGTFDYWGQGTQVTVSS	high polyreactivity
QVQLVESGGGLVQAGGSLRLSCAASGSIFDYYTMGWYRQAPGKEREFVAGISDSGGSTNYADSVKGRFTISRDNAKNTVYLQMNSLKPEDTAVYYCNAEYVGWFYKYDYWGQGTQVTVSS	high polyreactivity
QVQLVESGGGLVQAGGSLRLSCAASGSIFEFYAMGWYRQAPGKERELVAAITSDGGSTYYADSVKGRFTISRDNAKNTVYLQMNSLKPEDTAVYYCAKDPYALPAQINDYWGQGTQVTVSS	high polyreactivity
QVQLVESGGGLVQAGGSLRLSCAASGSIFEGYGMGWYRQAPGKERELVASISTGDSTKYADSVKGRFTISRDNAKNTVYLQMNSLKPEDTAVYYCNAPYFYLPHKYDYWGQGTQVTVSS	low polyreactivity
QVQLVESGGGLVQAGGSLRLSCAASGSIFELNAMGWSRQAPGKERELVAAITSSGSSTYYADSVKGRFTISRDNAKNTVYLQMNSLKPEDTAVYYCARDAFEPYDVGEYYYWGQGTQVTVSS	low polyreactivity
QVQLVESGGGLVQAGGSLRLSCAASGSIFELNAMGWYRQAPGKEMELVAAIRWRTGRTYYADSVKGRFTISRDNAKNTVYLLMNSLKPEDTAVYYCNADVTSLTRVHGRFIVSDYDYWGQGTQVTVSS	low polyreactivity
QVQLVESGGGLVQAGGSLRLSCAASGSIFEQNAMGWYRQAPGKERELVAGINEGGGSTYYADSVKGRFTISRDNAKNTVYLQMNSLKPEDTAVYYCAATLGSRWAIYDYWGQGTQVTVSS	high polyreactivity
QVQLVESGGGLVQAGGSLRLSCAASGSIFEQYAMGWYRKAPGKERELVAAISSGGSTNYADSVKGRFTISRDNAKNTVYLQMNSLKPEDTAVYYCAAAYYTVGWLYYDYWYPFAYYYWGQGTQVTVSS	low polyreactivity
QVQLVESGGGLVQAGGSLRLSCAASGSIFEQYPMGWYRQAPGKERELVAAISRRSGRTYYADSVKGRFTISRDNAKHTVYLQMHSLIPEDTAVYYCAASGIYFVQYNSWGQGTHVTVSS	high polyreactivity
QVQLVESGGGLVQAGGSLRLSCAASGSIFERYAMGWYRQAPGKERELVAAISWRGGSTYYADSVKGRFTISRDNAKNTVYLQMNSLKPEDTAVYYCAAGARYVKQGYGYWGQGTQVTVSS	high polyreactivity
QVQLVESGGGLVQAGGSLRLSCAASGSIFESNAMGWYRPAPGKEREFVAAIDQNDGSTNYADSVKGRFTISRDHAKNTVYLQMNSLKPEDTAVYYCAKYWGYLGYYEFDYWGQGTQVTVSS	low polyreactivity
QVQLVESGGGLVQAGGSLRLSCAASGSIFESYAMGWYRQAPGKERELVASISGGGSTYYADSVKGRFTISRDNAKNTVYLQMNSLKPEDTAGYYCATVYVRYRQSRLIRYGYWGQGTQVTVSS	high polyreactivity
QVQLVESGGGLVQAGGSLRLSCAASGSIFESYARGWYRHSPGKERELVADITYHGGITYYADSVKGRFTISRDNAKNNFYLQMNSLKPEDTSVYYCAAESEKWYNYVLSYDWEYDYWGQGTQVTVSS	low polyreactivity
QVQLVESGGGLVQAGGSLRLSCAASGSIFESYVMGWSRPAPGTEREMVAAISSGGSTYYADSVKGRFTISRDNAKNTVYLQMNSLKPEDTAVYYCAANYDGGYLDYEAGYRLEYDYWGQGTQVTVSS	low polyreactivity
QVQLVESGGGLVQAGGSLRLSCAASGSIFESYVMGWYRQAPGKERELVAAISSGGSTYYADSVKGRFTISRDNAKNTVYLQMNSLKPEDTAVYYCNTEVVRFKYDYWGQGTQVTVSS	low polyreactivity
